One may read the Km as the concentration of substrate that gives half-maximal velocity.

Substrate in the data set: NC(=O)c1ncn([C@@H]2O[C@H](COP(=O)(O)O)[C@@H](O)[C@H]2O)c1N
The conditions noted are these: Homo sapiens.

Description: Activity of human wild-type ATIC assessed as IMPCH activity

B1: Bifunctional purine biosynthesis protein ATIC (Homo sapiens), P31939 (protein)
chain: MAPGQLALFSVSDKTGLVEFARNLTALGLNLVASGGTAKALRDAGLAVRDVSELTGFPEMLGGRVKTLHPAVHAGILARNIPEDNADMARLDFNLIRVVACNLYPFVKTVASPGVTVEEAVEQIDIGGVTLLRAAAKNHARVTVVCEPEDYVVVSTEMQSSESKDTSLETRRQLALKAFTHTAQYDEAISDYFRKQYSKGVSQMPLRYGMNPHQTPAQLYTLQPKLPITVLNGAPGFINLCDALNAWQLVKELKEALGIPAAASFKHVSPAGAAVGIPLSEDEAKVCMVYDLYKTLTPISAAYARARGADRMSSFGDFVALSDVCDVPTAKIISREVSDGIIAPGYEEEALTILSKKKNGNYCVLQMDQSYKPDENEVRTLFGLHLSQKRNNGVVDKSLFSNVVTKNKDLPESALRDLIVATIAVKYTQSNSVCYAKNGQVIGIGAGQQSRIHCTRLAGDKANYWWLRHHPQVLSMKFKTGVKRAEISNAIDQYVTGTIGEDEDLIKWKALFEEVPELLTEAEKKEWVEKLTEVSISSDAFFPFRDNVDRAKRSGVAYIAAPSGSAADKVVIEACDELGIILAHTNLRLFHH
As for B1, the Km stood at 1.9 µM.

The record behind these values is ChEMBL document CHEMBL1156444, “Structure-based design, synthesis, evaluation, and crystal structures of transition state analogue inhibitors of inosine monophosphate cyclohydrolase” (J Biol Chem, 2007).
